From the supplement of paper PMC10065799, “High-throughput profiling of sequence recognition by tyrosine kinases and SH2 domains using bacterial peptide display” (eLife, 2023)
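Note: 11-residue human phosphosite peptides and single-mutation variants displayed on the E. coli surface, counted by deep sequencing, each peptide's frequency after selection divided by its frequency in the unselected input library; frequency after pTyr selection over input frequency; kinase dosed for 20-30% of maximal phosphorylation in three min.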

The sequences below were run on AncSZ (assay: phosphorylation enrichment, bacterial display (enrichment ratio); higher = better substrate or ligand; peptides without Tyr show the background).
QSSEGYDLGDR [KIAA1210_Y564_G565D] was tested, and the phosphorylation enrichment was 1.41.
For VFSTDYFRVGG [NTRK2_Y706_YF], the phosphorylation enrichment was 1.69.
With ALKKPYSVLYK [RPF2_Y59_G60S] the phosphorylation enrichment was 0.603.
In the case of ASMAKYFASEI [ACADSB_Y372_YF], the phosphorylation enrichment is reported as 0.721.
Work on FETNVYVDKNL [PTCHD3_Y688_K685T] yielded a phosphorylation enrichment of 0.996.
EPVSDYINANV [PTPN11_Y304_I309V] gave a phosphorylation enrichment of 1.03.
KHMADYPDFKF [SOX11_Y113_YF] showed a phosphorylation enrichment of 0.745.
Work on LEQGEYALRSH [HADHB_Y244_D242G] yielded a phosphorylation enrichment of 0.935.
In the case of FFRKVYHLASV [RBL1_Y796_YF], the phosphorylation enrichment is reported as 0.697.
REEKNYKHKET [BCLAF1_Y459_L461H] was tested, and the phosphorylation enrichment was 0.829.
For LFNQDYPIHCV [GATM_Y227_S231C_YF], the phosphorylation enrichment was 1.43.
QEIATYRRLLE [KRT14_Y415] was tested, and the phosphorylation enrichment was 0.689.
QLGLQYSQGLV [EIF2B4_Y214_R209Q] was tested, and the phosphorylation enrichment was 0.995.
HTDDGYMPMSP [IRS1_Y612] was tested, and the phosphorylation enrichment was 1.94.
With SQPASYQRRLL [PPIG_Y320] the phosphorylation enrichment was 0.394.
In the case of NVVNEYSSELE [FGB_Y172], the phosphorylation enrichment is reported as 1.19.
For LFEDCYLLGTS [ASS1_Y87_R86C_YF], the phosphorylation enrichment was 2.1.
In the case of RGEAVYSRDCV [XPC_Y676], the phosphorylation enrichment is reported as 0.997.
In the case of EEGENYQKGER [CHGB_Y173], the phosphorylation enrichment is reported as 0.921.
In the case of TTKGAYSLSVR [YES1_Y194_I198V], the phosphorylation enrichment is reported as 0.894.
ATDLAYFLVRE [ASL_Y375_K380E_YF] was tested, and the phosphorylation enrichment was 1.54.
With GESQGYDIMEA [MSH2_Y863_P868A] the phosphorylation enrichment was 0.85.
In the case of DLNATYRTIQG [U2SURP_Y634], the phosphorylation enrichment is reported as 0.631.
In the case of FHLGKYLQEVL [KLB_Y910_Y906H_YF], the phosphorylation enrichment is reported as 1.58.
Sequence TVSTRYTQPQP [SARG_Y259] has a phosphorylation enrichment of 0.616.
Work on PVGVLYEVKVY [PTS_Y128_K129E] yielded a phosphorylation enrichment of 1.64.
Sequence LPSKDYAEVGR [HP_Y272] has a phosphorylation enrichment of 0.654.
Work on YLEEEYVKAVG [TF_Y674_G671E] yielded a phosphorylation enrichment of 1.36.
SKEPYYVHCIK [MYO1D_Y586_R588H] was tested, and the phosphorylation enrichment was 0.965.
In the case of FRDALYKFMVD [PHEX_Y250_YF], the phosphorylation enrichment is reported as 1.15.
In the case of NTGDFCDLFGG [PTPN11_Y63_Y63C_YF], the phosphorylation enrichment is reported as 1.01.
For GRSTFYWPSPR [GAGE12J_Y10_R13S_YF], the phosphorylation enrichment was 0.643.
Work on FNSLPYQVPTS [CALCOCO2_Y358] yielded a phosphorylation enrichment of 0.942.

What follows are sequences tested against FGFR3 (UniProt P22607) in the same assay as above.
Sequence of FGFR3 (P22607 whole entry, looked up): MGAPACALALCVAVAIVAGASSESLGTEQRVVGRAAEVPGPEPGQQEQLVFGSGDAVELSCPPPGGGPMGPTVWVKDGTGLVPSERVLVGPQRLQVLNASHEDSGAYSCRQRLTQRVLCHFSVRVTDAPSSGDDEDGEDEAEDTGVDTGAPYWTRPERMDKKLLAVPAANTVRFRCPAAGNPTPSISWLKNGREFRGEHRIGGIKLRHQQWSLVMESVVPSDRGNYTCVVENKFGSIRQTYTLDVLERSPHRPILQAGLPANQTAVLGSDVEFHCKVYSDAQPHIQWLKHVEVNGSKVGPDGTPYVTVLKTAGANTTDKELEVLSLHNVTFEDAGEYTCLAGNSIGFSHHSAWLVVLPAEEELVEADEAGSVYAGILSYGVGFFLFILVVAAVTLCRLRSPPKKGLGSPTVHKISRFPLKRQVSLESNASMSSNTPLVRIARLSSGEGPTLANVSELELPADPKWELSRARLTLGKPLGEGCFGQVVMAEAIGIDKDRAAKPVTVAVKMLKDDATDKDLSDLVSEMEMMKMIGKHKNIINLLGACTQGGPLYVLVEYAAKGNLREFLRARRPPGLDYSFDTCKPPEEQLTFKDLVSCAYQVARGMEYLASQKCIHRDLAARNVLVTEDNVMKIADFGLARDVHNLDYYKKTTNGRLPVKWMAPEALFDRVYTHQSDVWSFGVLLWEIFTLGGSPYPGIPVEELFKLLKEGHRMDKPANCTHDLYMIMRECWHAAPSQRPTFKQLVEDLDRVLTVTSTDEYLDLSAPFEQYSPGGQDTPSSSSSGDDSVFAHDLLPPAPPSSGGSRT
For QSSEGYDLGDR [KIAA1210_Y564_G565D], the phosphorylation enrichment was 0.714.
Sequence VFSTDYFRVGG [NTRK2_Y706_YF] has a phosphorylation enrichment of 3.75.
In the case of ALKKPYSVLYK [RPF2_Y59_G60S], the phosphorylation enrichment is reported as 0.406.
ASMAKYFASEI [ACADSB_Y372_YF] gave a phosphorylation enrichment of 0.781.
Sequence FETNVYVDKNL [PTCHD3_Y688_K685T] has a phosphorylation enrichment of 0.623.
With EPVSDYINANV [PTPN11_Y304_I309V] the phosphorylation enrichment was 0.585.
For KHMADYPDFKF [SOX11_Y113_YF], the phosphorylation enrichment was 0.701.
With LEQGEYALRSH [HADHB_Y244_D242G] the phosphorylation enrichment was 0.505.
FFRKVYHLASV [RBL1_Y796_YF] was tested, and the phosphorylation enrichment was 0.545.
Work on REEKNYKHKET [BCLAF1_Y459_L461H] yielded a phosphorylation enrichment of 0.431.
Sequence LFNQDYPIHCV [GATM_Y227_S231C_YF] has a phosphorylation enrichment of 2.52.
With QEIATYRRLLE [KRT14_Y415] the phosphorylation enrichment was 0.68.
With QLGLQYSQGLV [EIF2B4_Y214_R209Q] the phosphorylation enrichment was 0.776.
HTDDGYMPMSP [IRS1_Y612] was tested, and the phosphorylation enrichment was 0.757.
For SQPASYQRRLL [PPIG_Y320], the phosphorylation enrichment was 0.396.
NVVNEYSSELE [FGB_Y172] gave a phosphorylation enrichment of 0.769.
LFEDCYLLGTS [ASS1_Y87_R86C_YF] was tested, and the phosphorylation enrichment was 1.15.
In the case of RGEAVYSRDCV [XPC_Y676], the phosphorylation enrichment is reported as 1.01.
In the case of EEGENYQKGER [CHGB_Y173], the phosphorylation enrichment is reported as 0.731.
Sequence TTKGAYSLSVR [YES1_Y194_I198V] has a phosphorylation enrichment of 0.548.
Work on ATDLAYFLVRE [ASL_Y375_K380E_YF] yielded a phosphorylation enrichment of 3.95.
In the case of GESQGYDIMEA [MSH2_Y863_P868A], the phosphorylation enrichment is reported as 0.546.
Sequence DLNATYRTIQG [U2SURP_Y634] has a phosphorylation enrichment of 0.6.
With FHLGKYLQEVL [KLB_Y910_Y906H_YF] the phosphorylation enrichment was 0.788.
With TVSTRYTQPQP [SARG_Y259] the phosphorylation enrichment was 0.39.
Sequence PVGVLYEVKVY [PTS_Y128_K129E] has a phosphorylation enrichment of 1.02.
For LPSKDYAEVGR [HP_Y272], the phosphorylation enrichment was 0.895.
For YLEEEYVKAVG [TF_Y674_G671E], the phosphorylation enrichment was 0.893.
SKEPYYVHCIK [MYO1D_Y586_R588H] showed a phosphorylation enrichment of 0.664.
Work on FRDALYKFMVD [PHEX_Y250_YF] yielded a phosphorylation enrichment of 0.962.
Sequence NTGDFCDLFGG [PTPN11_Y63_Y63C_YF] has a phosphorylation enrichment of 0.653.
Work on GRSTFYWPSPR [GAGE12J_Y10_R13S_YF] yielded a phosphorylation enrichment of 0.708.
For FNSLPYQVPTS [CALCOCO2_Y358], the phosphorylation enrichment was 0.578.

What follows are sequences tested against Fyn (UniProt P06241) in the same assay as above.
Sequence of Fyn (P06241 whole entry, looked up): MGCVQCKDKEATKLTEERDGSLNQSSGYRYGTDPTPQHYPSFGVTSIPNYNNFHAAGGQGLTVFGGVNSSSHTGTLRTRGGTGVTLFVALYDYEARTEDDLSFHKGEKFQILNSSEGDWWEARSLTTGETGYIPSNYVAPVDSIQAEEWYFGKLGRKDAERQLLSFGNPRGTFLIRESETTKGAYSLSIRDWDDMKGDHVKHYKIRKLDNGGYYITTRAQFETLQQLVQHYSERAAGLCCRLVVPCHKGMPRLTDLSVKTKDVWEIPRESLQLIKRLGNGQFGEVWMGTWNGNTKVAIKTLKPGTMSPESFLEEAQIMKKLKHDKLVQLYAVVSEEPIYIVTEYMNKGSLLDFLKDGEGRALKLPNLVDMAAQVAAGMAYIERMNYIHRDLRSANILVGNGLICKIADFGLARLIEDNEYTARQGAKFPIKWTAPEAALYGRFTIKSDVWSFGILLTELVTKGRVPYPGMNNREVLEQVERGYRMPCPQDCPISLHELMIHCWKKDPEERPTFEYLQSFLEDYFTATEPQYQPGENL
Work on QSSEGYDLGDR [KIAA1210_Y564_G565D] yielded a phosphorylation enrichment of 0.948.
In the case of VFSTDYFRVGG [NTRK2_Y706_YF], the phosphorylation enrichment is reported as 0.464.
ALKKPYSVLYK [RPF2_Y59_G60S] was tested, and the phosphorylation enrichment was 0.36.
Work on ASMAKYFASEI [ACADSB_Y372_YF] yielded a phosphorylation enrichment of 0.504.
FETNVYVDKNL [PTCHD3_Y688_K685T] was tested, and the phosphorylation enrichment was 0.54.
EPVSDYINANV [PTPN11_Y304_I309V] gave a phosphorylation enrichment of 0.393.
KHMADYPDFKF [SOX11_Y113_YF] gave a phosphorylation enrichment of 0.502.
LEQGEYALRSH [HADHB_Y244_D242G] showed a phosphorylation enrichment of 0.747.
In the case of FFRKVYHLASV [RBL1_Y796_YF], the phosphorylation enrichment is reported as 0.491.
With REEKNYKHKET [BCLAF1_Y459_L461H] the phosphorylation enrichment was 0.436.
Sequence LFNQDYPIHCV [GATM_Y227_S231C_YF] has a phosphorylation enrichment of 0.777.
Work on QEIATYRRLLE [KRT14_Y415] yielded a phosphorylation enrichment of 0.562.
Work on QLGLQYSQGLV [EIF2B4_Y214_R209Q] yielded a phosphorylation enrichment of 0.447.
With HTDDGYMPMSP [IRS1_Y612] the phosphorylation enrichment was 0.839.
Work on SQPASYQRRLL [PPIG_Y320] yielded a phosphorylation enrichment of 0.53.
NVVNEYSSELE [FGB_Y172] gave a phosphorylation enrichment of 0.515.
LFEDCYLLGTS [ASS1_Y87_R86C_YF] showed a phosphorylation enrichment of 1.01.
For RGEAVYSRDCV [XPC_Y676], the phosphorylation enrichment was 2.95.
With EEGENYQKGER [CHGB_Y173] the phosphorylation enrichment was 0.518.
TTKGAYSLSVR [YES1_Y194_I198V] showed a phosphorylation enrichment of 0.317.
With ATDLAYFLVRE [ASL_Y375_K380E_YF] the phosphorylation enrichment was 0.809.
GESQGYDIMEA [MSH2_Y863_P868A] was tested, and the phosphorylation enrichment was 0.456.
With DLNATYRTIQG [U2SURP_Y634] the phosphorylation enrichment was 0.646.
FHLGKYLQEVL [KLB_Y910_Y906H_YF] showed a phosphorylation enrichment of 0.346.
TVSTRYTQPQP [SARG_Y259] showed a phosphorylation enrichment of 0.442.
PVGVLYEVKVY [PTS_Y128_K129E] showed a phosphorylation enrichment of 0.775.
LPSKDYAEVGR [HP_Y272] gave a phosphorylation enrichment of 0.735.
YLEEEYVKAVG [TF_Y674_G671E] showed a phosphorylation enrichment of 0.491.
Sequence SKEPYYVHCIK [MYO1D_Y586_R588H] has a phosphorylation enrichment of 0.58.
FRDALYKFMVD [PHEX_Y250_YF] was tested, and the phosphorylation enrichment was 0.525.
In the case of NTGDFCDLFGG [PTPN11_Y63_Y63C_YF], the phosphorylation enrichment is reported as 0.499.
GRSTFYWPSPR [GAGE12J_Y10_R13S_YF] showed a phosphorylation enrichment of 0.466.
FNSLPYQVPTS [CALCOCO2_Y358] was tested, and the phosphorylation enrichment was 0.467.

What follows are sequences tested against MERTK (UniProt Q12866) in the same assay as above.
Sequence of MERTK (Q12866 whole entry, looked up): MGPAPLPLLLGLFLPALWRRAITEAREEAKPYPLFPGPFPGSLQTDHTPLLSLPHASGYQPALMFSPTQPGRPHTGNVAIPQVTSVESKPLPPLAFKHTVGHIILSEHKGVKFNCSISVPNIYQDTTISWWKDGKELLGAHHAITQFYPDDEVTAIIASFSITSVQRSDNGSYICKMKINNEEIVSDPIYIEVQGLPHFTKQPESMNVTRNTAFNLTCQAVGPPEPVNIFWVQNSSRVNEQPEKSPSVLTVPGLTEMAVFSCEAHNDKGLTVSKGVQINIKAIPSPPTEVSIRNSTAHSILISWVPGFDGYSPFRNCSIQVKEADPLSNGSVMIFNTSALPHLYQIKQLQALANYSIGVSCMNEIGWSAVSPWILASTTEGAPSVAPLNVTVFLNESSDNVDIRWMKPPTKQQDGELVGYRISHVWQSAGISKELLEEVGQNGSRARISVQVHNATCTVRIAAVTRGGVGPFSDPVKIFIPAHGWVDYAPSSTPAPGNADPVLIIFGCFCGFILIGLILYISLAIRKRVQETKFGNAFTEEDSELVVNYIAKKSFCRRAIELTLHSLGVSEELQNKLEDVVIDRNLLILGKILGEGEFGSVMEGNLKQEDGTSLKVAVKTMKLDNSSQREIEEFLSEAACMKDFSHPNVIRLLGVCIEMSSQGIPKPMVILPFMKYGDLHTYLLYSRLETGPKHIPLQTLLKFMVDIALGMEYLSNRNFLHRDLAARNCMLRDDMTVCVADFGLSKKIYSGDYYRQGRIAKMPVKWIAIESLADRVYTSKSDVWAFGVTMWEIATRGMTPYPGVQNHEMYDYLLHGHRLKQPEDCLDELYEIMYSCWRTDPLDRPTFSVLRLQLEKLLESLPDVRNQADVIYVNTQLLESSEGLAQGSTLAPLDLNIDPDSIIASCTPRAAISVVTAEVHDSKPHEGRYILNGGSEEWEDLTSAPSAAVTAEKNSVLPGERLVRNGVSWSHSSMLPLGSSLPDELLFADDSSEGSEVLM
In the case of QSSEGYDLGDR [KIAA1210_Y564_G565D], the phosphorylation enrichment is reported as 0.501.
VFSTDYFRVGG [NTRK2_Y706_YF] was tested, and the phosphorylation enrichment was 0.587.
Work on ALKKPYSVLYK [RPF2_Y59_G60S] yielded a phosphorylation enrichment of 0.436.
Work on ASMAKYFASEI [ACADSB_Y372_YF] yielded a phosphorylation enrichment of 0.416.
Work on FETNVYVDKNL [PTCHD3_Y688_K685T] yielded a phosphorylation enrichment of 0.411.
For EPVSDYINANV [PTPN11_Y304_I309V], the phosphorylation enrichment was 0.4.
Work on KHMADYPDFKF [SOX11_Y113_YF] yielded a phosphorylation enrichment of 0.398.
LEQGEYALRSH [HADHB_Y244_D242G] gave a phosphorylation enrichment of 0.567.
With FFRKVYHLASV [RBL1_Y796_YF] the phosphorylation enrichment was 0.36.
REEKNYKHKET [BCLAF1_Y459_L461H] showed a phosphorylation enrichment of 0.688.
LFNQDYPIHCV [GATM_Y227_S231C_YF] showed a phosphorylation enrichment of 0.729.
For QEIATYRRLLE [KRT14_Y415], the phosphorylation enrichment was 0.464.
For QLGLQYSQGLV [EIF2B4_Y214_R209Q], the phosphorylation enrichment was 0.731.
Work on HTDDGYMPMSP [IRS1_Y612] yielded a phosphorylation enrichment of 0.883.
Sequence SQPASYQRRLL [PPIG_Y320] has a phosphorylation enrichment of 0.316.
NVVNEYSSELE [FGB_Y172] showed a phosphorylation enrichment of 0.422.
LFEDCYLLGTS [ASS1_Y87_R86C_YF] showed a phosphorylation enrichment of 0.442.
Work on RGEAVYSRDCV [XPC_Y676] yielded a phosphorylation enrichment of 0.857.
EEGENYQKGER [CHGB_Y173] was tested, and the phosphorylation enrichment was 0.425.
In the case of TTKGAYSLSVR [YES1_Y194_I198V], the phosphorylation enrichment is reported as 0.364.
ATDLAYFLVRE [ASL_Y375_K380E_YF] showed a phosphorylation enrichment of 0.694.
Sequence GESQGYDIMEA [MSH2_Y863_P868A] has a phosphorylation enrichment of 0.42.
DLNATYRTIQG [U2SURP_Y634] showed a phosphorylation enrichment of 0.473.
Sequence FHLGKYLQEVL [KLB_Y910_Y906H_YF] has a phosphorylation enrichment of 0.428.
TVSTRYTQPQP [SARG_Y259] showed a phosphorylation enrichment of 0.394.
With PVGVLYEVKVY [PTS_Y128_K129E] the phosphorylation enrichment was 0.55.
LPSKDYAEVGR [HP_Y272] showed a phosphorylation enrichment of 0.801.
YLEEEYVKAVG [TF_Y674_G671E] was tested, and the phosphorylation enrichment was 0.454.
SKEPYYVHCIK [MYO1D_Y586_R588H] gave a phosphorylation enrichment of 0.559.
FRDALYKFMVD [PHEX_Y250_YF] showed a phosphorylation enrichment of 0.763.
For NTGDFCDLFGG [PTPN11_Y63_Y63C_YF], the phosphorylation enrichment was 0.486.
Sequence GRSTFYWPSPR [GAGE12J_Y10_R13S_YF] has a phosphorylation enrichment of 6.43.
Work on FNSLPYQVPTS [CALCOCO2_Y358] yielded a phosphorylation enrichment of 1.34.
